Measurements as given in US20260193331A1 (THABOR THERAPEUTICS, published 2026).
Where two headings read alike, the source gives them in different places.

T1: human AGR2 WT (human, UniProt O95994 21-175)
T1 construct: also called hAGR2; recombinant human AGR2
T1 sequence: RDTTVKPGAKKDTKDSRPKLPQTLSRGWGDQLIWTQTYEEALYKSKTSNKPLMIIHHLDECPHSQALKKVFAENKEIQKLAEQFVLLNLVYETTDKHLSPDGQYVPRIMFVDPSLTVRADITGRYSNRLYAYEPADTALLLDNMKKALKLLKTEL

T2: human AGR3 (human, UniProt Q8TD06 22-166, limits assumed)
T2 construct: Closest family member of AGR2, used as a specificity control in the ELISA
T2 sequence (looked up): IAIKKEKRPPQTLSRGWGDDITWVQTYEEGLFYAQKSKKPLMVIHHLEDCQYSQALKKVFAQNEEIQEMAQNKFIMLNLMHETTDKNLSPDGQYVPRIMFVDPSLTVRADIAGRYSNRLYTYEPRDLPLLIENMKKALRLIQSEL

T3: human AGR2 E60A (human, UniProt O95994 21-175)
T3 construct: Whole entry as named; also called monomeric AGR2
T3 chain: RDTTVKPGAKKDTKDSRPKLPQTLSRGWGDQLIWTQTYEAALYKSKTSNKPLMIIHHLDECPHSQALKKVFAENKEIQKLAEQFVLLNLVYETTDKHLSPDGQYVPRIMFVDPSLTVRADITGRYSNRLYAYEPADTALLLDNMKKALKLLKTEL

T4: mouse AGR2 (mouse, UniProt O88312 21-175)
T4 construct: Whole entry as named
T4 sequence: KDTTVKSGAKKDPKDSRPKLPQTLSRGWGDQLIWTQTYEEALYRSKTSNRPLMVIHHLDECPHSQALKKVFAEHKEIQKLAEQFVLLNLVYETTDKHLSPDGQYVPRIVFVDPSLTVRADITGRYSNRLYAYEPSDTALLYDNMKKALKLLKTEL

T5: dog AGR2 (dog, UniProt O95994 21-175 (human entry), limits assumed)
T5 construct: Whole entry as named
T5 chain: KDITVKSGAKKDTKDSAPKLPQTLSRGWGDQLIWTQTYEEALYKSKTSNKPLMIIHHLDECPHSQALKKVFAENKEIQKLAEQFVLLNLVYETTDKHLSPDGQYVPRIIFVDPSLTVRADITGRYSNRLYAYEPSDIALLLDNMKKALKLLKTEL

T6: macaque AGR2 (macaque (rhesus monkey), UniProt O95994 21-175 (human entry), limits assumed)
T6 construct: Whole entry as named; also called rhesus monkey AGR2
T6 chain: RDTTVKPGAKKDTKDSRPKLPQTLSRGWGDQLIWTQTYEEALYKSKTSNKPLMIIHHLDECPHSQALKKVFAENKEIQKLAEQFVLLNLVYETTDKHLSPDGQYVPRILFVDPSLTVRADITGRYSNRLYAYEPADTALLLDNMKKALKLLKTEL

B1: TH-101 IgG1-LALA humanized monoclonal antibody (antibody, V domains shown)
VH: QVQLVQSGAEVKKPGASVKVSCKTSGYVFSRSWMNWVRQAPGQGLEWIGWIYPGDGDTNYNGKFKDRVTLTADKSTSTVYMELSSLRSEDTAVYFCARGGYDGSPWLSYWGQGTLVTVSS
VL: DIQMTQSPSSLSASVGDRVTITCKASQDINSYLSWFQQKPGKAPKTLIYRANRLVDGVPSRFSGSGSGQDFTLTISSLQPEDIATYYCLQYDEFPFTFGGGTKVEIKR
B2: TH-104 IgG1-LALA humanized monoclonal antibody (antibody, V domains shown)
VH: QVQLVQSGSELKKPGASVKVSCKTSGYVFSRSWMNWVRQAPGQGLEWIGWIYPGDGDTNYNGKFKDRFVLSADKSVSTVYLQISSLKAEDTAVYFCARGGYDGSPWLSYWGQGTLVTVSS
VL: DIQMTQSPSSLSASVGDRVTITCKASQDINSYLSWFQQKPGKAPKTLIYRANRLVDGVPSRFSGSGSGQDFTLTISSLQPEDIATYYCLQYDEFPFTFGGGTKVEIKR
B3: TH-115 IgG1-LALA humanized monoclonal antibody (antibody, V domains shown)
VH: QVQLLESGGGLVKPGGSLRLSCATSGYVFSRSWMNWIRQAPGQGLEWIGWIYPGDGDTNYNGKVKDRFTLSADKAKNSVYLQMNSLRAEDTAVYFCARGGYDGSPWLSYWGQGTLVTVSS
VL: EIVLTQSPDFQSVTPKEKVTITCKASQDINSYLSWFQQKPDQSPKTLIYRANRLVDGVPSRFSGSGSGQDFTLTINSLEAEDAATYYCLQYDEFPFTFGGGTKVEIKR
B4: TH-106 IgG1-LALA humanized monoclonal antibody (antibody)
heavy: not shown
light: EIVLTQSPATLSLSPGERATLSCKASQDINSYLSWFQQKPGQAPRTLIYRANRLVDGIPARFSGSGSGQDFTLTISSLEPEDFAVYYCLQYDEFPFTFGGGTKVEIKRTVAAPSVFIFPPSDEQLKSGTASVVCLLNNFYPREAKVQWKVDNALQSGNSQESVTEQDSKDSTYSLSSTLTLSKADYEKHKVYACEVTHQGLSSPVTKSFNRGEC
B5: TH-109 IgG1-LALA humanized monoclonal antibody (antibody, V domains shown)
VH: QVQLVQSGSELKKPGASVKVSCKTSGYVFSRSWMNWVRQAPGQGLEWIGWIYPGDGDTNYNGKFKDRFVLSADKSVSTVYLQISSLKAEDTAVYFCARGGYDGSPWLSYWGQGTLVTVSS
VL: EIVLTQSPATLSLSPGERATLSCKASQDINSYLSWFQQKPGQAPRTLIYRANRLVDGIPARFSGSGSGQDFTLTISSLEPEDFAVYYCLQYDEFPFTFGGGTKVEIKR
B6: TH-106 IgG1 humanized monoclonal antibody (antibody)
heavy: not shown
light: EIVLTQSPATLSLSPGERATLSCKASQDINSYLSWFQQKPGQAPRTLIYRANRLVDGIPARFSGSGSGQDFTLTISSLEPEDFAVYYCLQYDEFPFTFGGGTKVEIKRTVAAPSVFIFPPSDEQLKSGTASVVCLLNNFYPREAKVQWKVDNALQSGNSQESVTEQDSKDSTYSLSSTLTLSKADYEKHKVYACEVTHQGLSSPVTKSFNRGEC

Tests used:
human AGR2 WT [1] = molecular target: T1, human AGR2 WT; experiment: kinetics of Table 4, antibody immobilized, hAGR2 analyte
BSA [2] = molecular target: T7, BSA (UniProt P02769 25-607); experiment: ELISA on plate-coated antigen (1 µg/mL); antibody titrated 10 µg/mL to 0.15 ng/mL; anti-human IgG-HRP, OD 450 nm
T7 construct: Negative control coating in the ELISA
T7 sequence (P02769 25-607 limits assumed): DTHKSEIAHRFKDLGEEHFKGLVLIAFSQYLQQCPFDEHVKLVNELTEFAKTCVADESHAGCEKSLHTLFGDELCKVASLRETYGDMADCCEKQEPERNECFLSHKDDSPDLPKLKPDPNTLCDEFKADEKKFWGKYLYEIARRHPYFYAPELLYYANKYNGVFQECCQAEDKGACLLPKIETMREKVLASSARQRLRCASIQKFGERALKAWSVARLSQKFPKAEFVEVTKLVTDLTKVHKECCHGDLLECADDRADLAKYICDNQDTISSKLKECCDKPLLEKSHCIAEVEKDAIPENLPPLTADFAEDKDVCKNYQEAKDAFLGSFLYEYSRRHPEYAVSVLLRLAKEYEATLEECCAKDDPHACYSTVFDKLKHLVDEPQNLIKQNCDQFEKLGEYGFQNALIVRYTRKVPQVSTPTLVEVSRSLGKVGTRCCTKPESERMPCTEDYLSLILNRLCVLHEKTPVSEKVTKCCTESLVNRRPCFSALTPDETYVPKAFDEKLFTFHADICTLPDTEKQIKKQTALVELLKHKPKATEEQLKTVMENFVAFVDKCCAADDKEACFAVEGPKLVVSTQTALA

human AGR3 [3] = molecular target: T2, human AGR3; experiment: as above
human AGR2 WT [4] = molecular target: T1, human AGR2 WT; experiment: kinetics, antibody immobilized, hAGR2 soluble analyte; instrument not stated
human AGR2 E60A = molecular target: T3, human AGR2 E60A; experiment: ELISA, antigen coated at 1 µg/mL, antibody titrated
mouse AGR2 = molecular target: T4, mouse AGR2; experiment: as above
human AGR2 WT [5] = molecular target: T1, human AGR2 WT; experiment: as above
dog AGR2 = molecular target: T5, dog AGR2; experiment: as above
macaque AGR2 = molecular target: T6, macaque AGR2; experiment: as above
BSA [6] = molecular target: T7, BSA; experiment: ELISA on plate-coated antigen (1 µg/mL); antibody titrated 10 µg/mL to 0.15 ng/mL; anti-human IgG-HRP, OD 450 nm; remark: listed apart in the source
human AGR3 [7] = molecular target: T2, human AGR3; experiment: as above; remark: listed apart in the source
BSA [8] = molecular target: T7, BSA; experiment: as above; remark: listed apart in the source
human AGR3 [9] = molecular target: T2, human AGR3; experiment: as above; remark: listed apart in the source
BSA [10] = molecular target: T7, BSA; experiment: as above; remark: listed apart in the source
human AGR3 [11] = molecular target: T2, human AGR3; experiment: as above; remark: listed apart in the source
BSA [12] = molecular target: T7, BSA; experiment: as above; remark: listed apart in the source
human AGR3 [13] = molecular target: T2, human AGR3; experiment: as above; remark: listed apart in the source
BSA [14] = molecular target: T7, BSA; experiment: as above; remark: listed apart in the source
human AGR3 [15] = molecular target: T2, human AGR3; experiment: as above; remark: listed apart in the source

Binder | Kd (human AGR2 WT [1]) | Kd (human AGR2 WT [4]) | koff (human AGR2 WT [4]) | kon (human AGR2 WT [4]) | EC50 (human AGR2 E60A) | EC50 (mouse AGR2) | EC50 (human AGR2 WT [5]) | EC50 (dog AGR2) | EC50 (macaque AGR2) | also measured
B1 | < 0.15 nM | 0.116 nM | 3.52e-05 s⁻¹ | 303000 M⁻¹ s⁻¹ | 1.24 nM | 0.28 nM | 0.52 nM | 0.42 nM | 0.48 nM | binding result (BSA [2]): no binding (tested: 10 µg/mL); binding result (human AGR3 [3]): no binding (tested: 10 µg/mL)
B2 | < 0.15 nM | 0.0278 nM | 8.23e-06 s⁻¹ | 296000 M⁻¹ s⁻¹ | 0.92 nM | 0.3 nM | 0.527 nM | 0.48 nM | 0.44 nM | binding result (BSA [6]): no binding (tested: 10 µg/mL); binding result (human AGR3 [7]): no binding (tested: 10 µg/mL)
B3 | < 0.15 nM | 0.063 nM | 1.94e-05 s⁻¹ | 308000 M⁻¹ s⁻¹ | 1.29 nM | 0.5 nM | 0.813 nM | 0.6 nM | 0.62 nM | binding result (BSA [8]): no binding (tested: 10 µg/mL); binding result (human AGR3 [9]): no binding (tested: 10 µg/mL)
B4 | < 0.15 nM | 0.00327 nM | 1.07e-06 s⁻¹ | 326000 M⁻¹ s⁻¹ | 0.96 nM | 0.313 nM | 0.633 nM | 0.547 nM | 0.547 nM | binding result (BSA [10]): no binding (tested: 10 µg/mL); binding result (human AGR3 [11]): no binding (tested: 10 µg/mL)
B5 | < 0.15 nM | 0.0265 nM | 8.74e-06 s⁻¹ | 329000 M⁻¹ s⁻¹ | 3.57 nM | 2.03 nM | 2.37 nM | 2.31 nM | 2.15 nM | binding result (BSA [12]): no binding (tested: 10 µg/mL); binding result (human AGR3 [13]): no binding (tested: 10 µg/mL)
B6 | – | – | – | – | 1.1 nM | 0.3 nM | 0.853 nM | 0.66 nM | 0.553 nM | binding result (BSA [14]): no binding (tested: 10 µg/mL); binding result (human AGR3 [15]): no binding (tested: 10 µg/mL)
